Patent publication US9540428B2, “Extracellular matrix heparin-binding domains” (EPFL-TTO, priority 2012, dated 2017)

B1: TNC III1-5: recombinant tenascin C fibronectin type III repeats 1-5 (E622 to A1074) with transglutaminase substrate NQEQVSPL and 6×His tag, SEQ ID NO:1 (protein)
chain: METDTLLLWVLLLWVPGSTGDAAQPAIEGRNQEQVSPLGGSEVSPPKDLVVTEVTEETVNLAWDNEMRVTEYLVVYTPTHEGGLEMQFRVPGDQTSTIIQELEPGVEYFIRVFAILENKKSIPVSARVATYLPAPEGLKFKSIKETSVEVEWDPLDIAFETWEIIFRNMNKEDEGEITKSLRRPETSYRQTGLAPGQEYEISLHIVKNNTRGPGLKRVTTTRLDAPSQIEVKDVTDTTALITWFKPLAEIDGIELTYGIKDVPGDRTTIDLTEDENQYSIGNLKPDTEYEVSLISRRGDMSSNPAKETFTTGLDAPRNLRRVSQTDNSITLEWRNGKAAIDSYRIKYAPISGGDHAEVDVPKSQQATTKTTLTGLRPGTEYGIGVSAVKEDKESNPATINAATELDTPKDLQVSETAETSLTLLWKTPLAKFDRYRLNYSLPTGQWVGVQLPRNTTSYVLRGLEPGQEYNVLLTAEKGRHKSKPARVKASTEQAGGGSHHHHHH
modifications: Tenascin III signal sequence with polyhistidine tag
B2: Fg β15-66: heparin-binding domain of human fibrinogen β chain aa15-66 (SEQ ID NO:8); construct with TG substrate and His tag, SEQ ID NO:2 (protein)
chain: GSNQEQVSPLGHRPLDKKREEAPSLRPAPPPISGGGYRARPAKAAATQKKVERKAPDAGGCGHHHHHH
modifications: GS linker, transglutaminase substrate, the Fg beta15-66, with a Histidine tag

Key:
FGF-17 = biological target: T1, FGF-17 (Homo sapiens, UniProt O60258); test: ELISA binding to coated FGF-17; details: 50 nM cytokine coated
T1 sequence (O60258 23-216): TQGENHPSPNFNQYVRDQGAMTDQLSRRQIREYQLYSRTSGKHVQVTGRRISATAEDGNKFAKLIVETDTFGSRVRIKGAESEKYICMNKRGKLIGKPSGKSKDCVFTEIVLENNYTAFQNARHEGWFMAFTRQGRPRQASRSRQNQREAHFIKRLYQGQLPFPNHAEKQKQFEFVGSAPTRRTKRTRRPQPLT
Protocol: (§1) ELISA plates were coated with cytokines or BSA and further incubated with TNC III1-5 to analyze binding of TNC III1-5 to a wide variety of cytokines. […] Results are depicted in FIG. 3. Method: 50 nM of cytokine was coated for (1 hr, 37° C.). After blocking with 2% BSA (1 hr, RT). 100 nM TNC III1-5 was applied in PBST (0.05% tween, 0.1% bovine serum albumin (BSA)) (1 hr, RT). TNC III1-5 was detected with horseradish peroxidase (HRP)-anti-HIS in PBST (1 hr, RT) and developed with 3,3′,5,5′-tetramethylbenzidine (TMB), a soluble colorimetric HRP […]. Addition of sulfuric acid stop solution changes the color to yellow, enabling accurate measurement of the intensity at 450 nm using a spectrophotometer or plate reader. […] Heparin (4 μM) was added to TNC III1-5 to test the effect of blocking the heparin binding site of TNC III1-5, which has been defined as domain TNC III5 (Weber, Zimmermann, et al., 1995).

FGF-18 = biological target: T2, FGF-18 (Homo sapiens, UniProt O76093); test: ELISA binding to coated FGF-18; details: 50 nM cytokine coated
T2 sequence (O76093 28-207): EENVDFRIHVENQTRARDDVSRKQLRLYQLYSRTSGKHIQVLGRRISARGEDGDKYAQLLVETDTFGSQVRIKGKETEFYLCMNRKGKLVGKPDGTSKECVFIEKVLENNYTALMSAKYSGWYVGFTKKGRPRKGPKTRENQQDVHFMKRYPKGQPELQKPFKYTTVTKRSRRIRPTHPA
Protocol: as §1

factor XIIIa = biological target: T3, factor XIIIa (Homo sapiens, UniProt P00488); test: Transglutaminase substrate activity (TAMRA, fibrinogen, PEG-lysine with factor XIIIa); type: biochemical; details: with and without factor XIIIa
T3 sequence (P00488 39-732 limits assumed): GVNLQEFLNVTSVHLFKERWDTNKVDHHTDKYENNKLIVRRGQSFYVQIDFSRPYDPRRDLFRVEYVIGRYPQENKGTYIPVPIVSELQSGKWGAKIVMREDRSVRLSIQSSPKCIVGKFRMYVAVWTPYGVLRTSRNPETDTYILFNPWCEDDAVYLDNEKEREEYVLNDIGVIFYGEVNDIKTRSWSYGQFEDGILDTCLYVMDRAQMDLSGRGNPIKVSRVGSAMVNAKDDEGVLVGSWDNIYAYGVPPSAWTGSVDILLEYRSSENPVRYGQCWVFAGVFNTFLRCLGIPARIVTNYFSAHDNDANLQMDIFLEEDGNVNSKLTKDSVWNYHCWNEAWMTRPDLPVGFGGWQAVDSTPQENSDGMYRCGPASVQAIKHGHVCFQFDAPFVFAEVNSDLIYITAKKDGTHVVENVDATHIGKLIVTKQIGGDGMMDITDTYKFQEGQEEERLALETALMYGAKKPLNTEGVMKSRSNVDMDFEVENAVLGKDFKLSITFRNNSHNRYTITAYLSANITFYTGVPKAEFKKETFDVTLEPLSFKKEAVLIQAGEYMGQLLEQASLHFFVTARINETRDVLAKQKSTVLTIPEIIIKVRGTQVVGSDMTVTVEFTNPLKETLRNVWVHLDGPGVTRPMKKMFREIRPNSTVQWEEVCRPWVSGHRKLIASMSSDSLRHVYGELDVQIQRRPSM
Protocol: The activity of the transglutaminase substrate (TG: NQEQVSPL) (SEQ ID NO:10) of the engineered protein TG-TNC III1-5 was confirmed. FIG. 12 depicts results. Methods: A) The TG activity of TG-TNC III1-5 was tested by reaction with a fluorescent TAMRA molecule, containing lysines, with and without the presence of factor XIIIa, the TAMRA molecule, or TG-TNC III1-5. […] B) The TG activity of TG-TNC III1-5 was tested by reaction with fibrinogen, with and without the presence of factor XIIIa, fibrinogen, or TG-TNC III1-5. Fibrinogen or no protein was coated on an ELISA plate (1 hr, 37° C.), blocked with 2% BSA (1 hr, RT), reacted with or without TG-TNC III1-5 or factor XIIIa C) The TG activity of TG-TNC III1-5 was tested by reaction with PEG-lysines. A robotic spotter was used to bind TG-TNC III1-5 inside 450 μm spots (Gobaa, Hoehnel, et al., 2011), and an immuno-fluorescent stain was used to visualize the location and distribution of TG-TNC III1-5 onto the PEG. D) TG-TNC III1-5 and TG-FN III9*-10,TNC III1-5 (5 μM) were incorporated into a 2% TG-PEG gel. After 2 washed with PBS, 98% and 96% respectively of the fragments was bound into gels, which were sequentially stained with HRP-conjugated anti-HIS, and developed with TMB to read an absorbance at 450 nm.

HGF = HGF (Homo sapiens, UniProt P14210); test: ELISA binding to coated HGF; details: 50 nM cytokine coated
Chain of HGF (P14210 32-728, species assumed): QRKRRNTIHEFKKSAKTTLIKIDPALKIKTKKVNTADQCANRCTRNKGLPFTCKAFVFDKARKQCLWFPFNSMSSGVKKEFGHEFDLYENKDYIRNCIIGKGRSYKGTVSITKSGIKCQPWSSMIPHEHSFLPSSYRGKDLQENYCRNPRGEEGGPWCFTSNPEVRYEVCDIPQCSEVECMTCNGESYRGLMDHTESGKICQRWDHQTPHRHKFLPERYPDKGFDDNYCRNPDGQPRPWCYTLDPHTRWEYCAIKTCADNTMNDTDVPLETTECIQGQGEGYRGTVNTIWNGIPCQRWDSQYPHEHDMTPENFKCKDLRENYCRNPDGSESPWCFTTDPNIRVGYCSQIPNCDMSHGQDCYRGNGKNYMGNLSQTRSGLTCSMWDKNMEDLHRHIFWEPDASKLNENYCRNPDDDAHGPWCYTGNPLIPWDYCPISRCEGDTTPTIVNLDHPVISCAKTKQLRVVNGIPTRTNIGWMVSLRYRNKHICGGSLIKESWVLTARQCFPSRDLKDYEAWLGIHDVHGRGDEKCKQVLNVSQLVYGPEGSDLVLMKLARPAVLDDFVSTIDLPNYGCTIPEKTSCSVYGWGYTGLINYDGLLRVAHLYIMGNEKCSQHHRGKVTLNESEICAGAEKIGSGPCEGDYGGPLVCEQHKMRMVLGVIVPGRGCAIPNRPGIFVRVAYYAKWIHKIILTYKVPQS
Protocol: as §1

PDGF-DD = PDGF-DD (Homo sapiens, UniProt Q9GZP0); test: ELISA binding to coated PDGF-DD; details: 50 nM cytokine coated
Chain of PDGF-DD (Q9GZP0 250-370 limits assumed): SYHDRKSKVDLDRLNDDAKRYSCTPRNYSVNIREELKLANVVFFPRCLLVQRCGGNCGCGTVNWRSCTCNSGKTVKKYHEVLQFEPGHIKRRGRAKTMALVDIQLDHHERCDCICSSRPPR
Protocol: as §1

PlGF-3 = biological target: T4, PlGF-3 (Homo sapiens, UniProt P49763); test: ELISA binding to coated PlGF-3; details: 50 nM cytokine coated
T4 sequence (P49763 19-221): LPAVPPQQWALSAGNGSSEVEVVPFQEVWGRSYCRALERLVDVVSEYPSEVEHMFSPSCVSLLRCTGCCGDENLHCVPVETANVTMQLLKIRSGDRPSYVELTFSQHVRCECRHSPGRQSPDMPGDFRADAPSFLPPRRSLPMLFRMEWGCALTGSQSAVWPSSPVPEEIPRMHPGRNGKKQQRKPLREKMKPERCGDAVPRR
Protocol: as §1
(§2) ELISA plates were coated with cytokines or BSA and further incubated with Fg β15-66 to analyze binding of […] to a wide variety of cytokines. […] Results are depicted in FIG. 4. Method: The methods were analogous to those used in Example 3.

FGF-5 = biological target: T5, FGF-5 (Homo sapiens, UniProt P12034); test: ELISA binding to coated FGF-5; details: 50 nM cytokine coated
T5 sequence (P12034 21-268): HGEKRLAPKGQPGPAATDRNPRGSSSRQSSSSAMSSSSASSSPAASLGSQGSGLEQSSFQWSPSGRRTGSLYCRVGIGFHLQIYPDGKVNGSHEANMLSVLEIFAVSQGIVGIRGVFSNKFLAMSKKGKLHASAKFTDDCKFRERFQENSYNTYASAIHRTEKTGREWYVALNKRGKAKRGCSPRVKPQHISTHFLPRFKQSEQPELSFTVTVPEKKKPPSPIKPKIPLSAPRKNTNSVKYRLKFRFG
Protocol: as §1, §2

Molecule | binding to FGF-17 (ELISA, signal above BSA background) (FGF-17) | binding to FGF-18 (ELISA, signal above BSA background) (FGF-18) | activity of the transglutaminase substrate (TG: NQEQVSPL) (factor XIIIa) | binding to HGF (ELISA, signal above BSA background) (HGF) | binding to PDGF-DD (ELISA, signal above BSA background) (PDGF-DD) | binding to PlGF-3 (ELISA, signal above BSA background) (PlGF-3) | binding to FGF-5 (ELISA, signal above BSA background) (FGF-5)
B1 | positive binding | positive binding | confirmed | positive binding | positive binding | – | –
B2 | – | – | – | – | – | positive binding | positive binding
